The source of these data is PMC6364807 (Nature, 2019).

For this test, the target named is human GABAA receptor β3 subunit (human, UniProt P28472, N-linked glycans at Asn80 and Asn149). The test can be described thus: cryo-EM structure.
Chain of human GABAA receptor β3 subunit (P28472 26-473): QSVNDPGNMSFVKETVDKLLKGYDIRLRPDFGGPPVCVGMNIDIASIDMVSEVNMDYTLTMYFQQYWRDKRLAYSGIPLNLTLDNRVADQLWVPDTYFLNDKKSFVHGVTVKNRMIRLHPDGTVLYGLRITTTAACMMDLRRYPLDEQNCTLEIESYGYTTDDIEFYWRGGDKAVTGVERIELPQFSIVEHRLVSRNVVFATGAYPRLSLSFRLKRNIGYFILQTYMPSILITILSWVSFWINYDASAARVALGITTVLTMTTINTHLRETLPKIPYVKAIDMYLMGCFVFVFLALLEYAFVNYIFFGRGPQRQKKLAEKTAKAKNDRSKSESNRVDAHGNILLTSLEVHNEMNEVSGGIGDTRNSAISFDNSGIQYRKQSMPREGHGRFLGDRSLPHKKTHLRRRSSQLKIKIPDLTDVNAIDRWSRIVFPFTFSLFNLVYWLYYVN

B1: megabody MbNb38^cHopQ (VHH)
VHH: QVQLQESGGGLVQAGGSLRVSCAASGRTFTAYIMAWFRQAPGKEREFLAAMDQGRIQYYGDSVRGRFTISRDYAKNSVDLQLDGLRPEDTAVYYCAAGAGFWGLRTASSYHYWGQGTQVTVSS
In the case of B1, the binding result was “binds”.
